Kd data for one molecule are collected here from article PMC9609871 (2022).

This test deals with PP2A catalytic subunit alpha (Homo sapiens, UniProt P67775). The test can be described thus: biolayer interferometry (PP2A immobilized). Background: BLI is a label-free optical method that tracks binding on a fibre tip over time.

Broadly, the Kd is the free concentration of one partner at which half of the binding sites on the other are occupied at equilibrium, for simple one-to-one binding. Lower therefore signals tighter binding.

PP2A catalytic subunit alpha, sequence (P67775 whole entry): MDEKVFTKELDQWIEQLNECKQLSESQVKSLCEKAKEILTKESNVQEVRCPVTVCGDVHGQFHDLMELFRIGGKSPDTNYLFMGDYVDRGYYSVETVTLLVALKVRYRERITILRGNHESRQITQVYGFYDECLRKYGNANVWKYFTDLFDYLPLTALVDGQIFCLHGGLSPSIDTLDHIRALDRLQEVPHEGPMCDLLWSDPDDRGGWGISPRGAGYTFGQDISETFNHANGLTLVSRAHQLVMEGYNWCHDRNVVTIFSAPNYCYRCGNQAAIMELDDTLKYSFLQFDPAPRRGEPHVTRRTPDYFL

B1: Caspase 9 (protein)
chain: DEADRRLLRRCRLRLVEELQVDQLWDALLSRELFRPHMIEDIQRAGSGSRRDQARQLIIDLETRGSQALPLFISCLEDTGQDMLASFLRTNRQAAKLSKPTLENLTPVVLRPEIRKPEVLRPETPRPVDIGSGGFGDVGALESLRGNADLAYILSMEPCGHCLIINNVNFCRESGLRTRTGSNIDCEKLRRRFSSLHFMVEVKGDLTAKKMVLALLELAQQDHGALDCCVVVILSHGCQASHLQFPGAVYGTDGCPVSVEKIVNIFNGTSCPSLGGKPKLFFIQACGGEQKDHGFEVASTSPEDESPGSNPEPDATPFQEGLRTFDQLDAISSLPTPSDIFVSYSTFPGFVSWRDPKSGSWYVETLDDIFEQWAHSEDLQSLLLRVANAVSVKGIYKQMPGCFNFLRKKLFFKTS
Regarding B1, the affinity, expressed as Kd, was 0.228 µM.
